Measured values from IntAct's records for PubMed 32494073.

B1: Calcium uptake protein 1, mitochondrial (Homo sapiens), Q9BPX6 (parent)
chain: MFRLNSLSALAELAVGSRWYHGGSQPIQIRRRLMMVAFLGASAVTASTGLLWKRAHAESPPCVDNLKSDIGDKGKNKDEGDVCNHEKKTADLAPHPEEKKKKRSGFRDRKVMEYENRIRAYSTPDKIFRYFATLKVISEPGEAEVFMTPEDFVRSITPNEKQPEHLGLDQYIIKRFDGKKISQEREKFADEGSIFYTLGECGLISFSDYIFLTTVLSTPQRNFEIAFKMFDLNGDGEVDMEEFEQVQSIIRSQTSMGMRHRDRPTTGNTLKSGLCSALTTYFFGADLKGKLTIKNFLEFQRKLQHDVLKLEFERHDPVDGRITERQFGGMLLAYSGVQSKKLTAMQRQLKKHFKEGKGLTFQEVENFFTFLKNINDVDTALSFYHMAGASLDKVTMQQVARTVAKVELSDHVCDVVFALFDCDGNGELSNKEFVSIMKQRLMRGLEKPKDMGFTRLMQAMWKCAQETAWDFALPKQ
partner: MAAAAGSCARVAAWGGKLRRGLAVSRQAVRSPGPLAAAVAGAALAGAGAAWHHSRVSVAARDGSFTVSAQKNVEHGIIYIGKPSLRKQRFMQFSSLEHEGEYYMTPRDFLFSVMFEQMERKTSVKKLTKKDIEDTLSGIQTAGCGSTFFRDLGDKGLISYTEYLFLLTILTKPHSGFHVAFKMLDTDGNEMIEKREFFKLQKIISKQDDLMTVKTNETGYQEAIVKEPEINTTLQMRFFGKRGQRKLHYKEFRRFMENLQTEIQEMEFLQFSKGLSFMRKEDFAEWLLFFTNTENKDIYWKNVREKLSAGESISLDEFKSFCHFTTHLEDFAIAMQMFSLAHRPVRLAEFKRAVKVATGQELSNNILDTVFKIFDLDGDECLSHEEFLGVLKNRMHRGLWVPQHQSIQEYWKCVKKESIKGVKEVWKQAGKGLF
B2: Calcium uptake protein 2, mitochondrial (Homo sapiens), Q8IYU8 (parent)
chain: B1 partner

Variants of: B1
Settings: with micu2_human MICU2, Q8IYU8

Variant	effect of a mutation on the interaction
C463S	with no effect

Variants of: B2
Settings: with micu1_human MICU1, Q9BPX6

Variant	effect of a mutation on the interaction
R352E	disrupting interaction strength
